Experimental data reported in US20060200330A1, “Methods and systems for modeling and simulating biochemical pathways” (KOREA INSTITUTE OF SCIENCE AND TECHNOLOGY, priority 2005, published 2006).
Like-named read-outs stand apart in the source and are kept apart here.

Tests used:
MEK = assay: Western blot of MEK activation (anti-phosphorylated MEK) in PC12 cells; format: cell-based
Description: (§1) In order to confirm the simulation, PC12 cells treated with EGF (100 ng/ml) were used to measure the time data tracking the activation levels of MEK and ERK, respectively. […] Western blot analysis was performed as follows. PC12 cells were treated with 100 ng/ml EGF for 0 to 120 min. Dissolved protein samples were reacted by using anti-phosphorylated MEK antibodies and anti-diphosphorylated ERK antibodies. Then, the resultant was reacted with anti-HRP (horse radish peroxidase)-conjugated secondary antibodies and confirmed the presence of a band via ECL chemoluminscence.
(§2) PC12 cells treated with EGF or nerve growth factor (NGF) were examined to evaluate the efficacies of PD09859 (10 μM) and U0126 (0.01-10 μM) in respect of MEK and ERK activation. Western blot analysis was performed as follows. PC12 cells treated with PD09859 and U0126 were treated with 100 ng/ml of EGF or NGF for 5 min. Then, the resulting protein sample was separated by performing SDS/PAGE, and then blotted by using anti-phosphorylated MEK and anti-diphosphoryated ERK antibodies. Again, the resultant was blotted by using anti-HRP (horseradish peroxidase) conjugated secondary antibodies and identified in bands by ECL chemo-luminescence.

EGFR = settings: cited from earlier work
ERK = assay: Western blot of ERK activation (anti-diphosphorylated ERK) in PC12 cells; format: cell-based; settings: PC12 cells treated with 100 ng/ml EGF for 0 to 120 min
Description: as §1, §2

B1: EGF: peptide growth factor composed of 55 amino acids in a long chain (protein, UniProt P01133 23-1207, looked up)
Pro-epidermal growth factor: PQHWSCPEGTLAGNGNSTCVGPAPFLIFSHGNSIFRIDTEGTNYEQLVVDAGVSVIMDFHYNEKRIYWVDLERQLLQRVFLNGSRQERVCNIEKNVSGMAINWINEEVIWSNQQEGIITVTDMKGNNSHILLSALKYPANVAVDPVERFIFWSSEVAGSLYRADLDGVGVKALLETSEKITAVSLDVLDKRLFWIQYNREGSNSLICSCDYDGGSVHISKHPTQHNLFAMSLFGDRIFYSTWKMKTIWIANKHTGKDMVRINLHSSFVPLGELKVVHPLAQPKAEDDTWEPEQKLCKLRKGNCSSTVCGQDLQSHLCMCAEGYALSRDRKYCEDVNECAFWNHGCTLGCKNTPGSYYCTCPVGFVLLPDGKRCHQLVSCPRNVSECSHDCVLTSEGPLCFCPEGSVLERDGKTCSGCSSPDNGGCSQLCVPLSPVSWECDCFPGYDLQLDEKSCAASGPQPFLLFANSQDIRHMHFDGTDYGTLLSQQMGMVYALDHDPVENKIYFAHTALKWIERANMDGSQRERLIEEGVDVPEGLAVDWIGRRFYWTDRGKSLIGRSDLNGKRSKIITKENISQPRGIAVHPMAKRLFWTDTGINPRIESSSLQGLGRLVIASSDLIWPSGITIDFLTDKLYWCDAKQSVIEMANLDGSKRRRLTQNDVGHPFAVAVFEDYVWFSDWAMPSVMRVNKRTGKDRVRLQGSMLKPSSLVVVHPLAKPGADPCLYQNGGCEHICKKRLGTAWCSCREGFMKASDGKTCLALDGHQLLAGGEVDLKNQVTPLDILSKTRVSEDNITESQHMLVAEIMVSDQDDCAPVGCSMYARCISEGEDATCQCLKGFAGDGKLCSDIDECEMGVPVCPPASSKCINTEGGYVCRCSEGYQGDGIHCLDIDECQLGEHSCGENASCTNTEGGYTCMCAGRLSEPGLICPDSTPPPHLREDDHHYSVRNSDSECPLSHDGYCLHDGVCMYIEALDKYACNCVVGYIGERCQYRDLKWWELRHAGHGQQQKVIVVAVCVVVLVMLLLLSLWGAHYYRTQKLLSKNPKNPYEESSRDVRSRRPADTEDGMSSCPQPWFVVIKEHQDLKNGGQPVAGEDGQAADGSMQPTSWRQEPQLCGMGTEQGCWIPVSSDKGSCPQVMERSFHMPSYGTQTLEGGVEKPHSLLSANPLWQQRALDPPHQMELTQ
modifications: Pro-epidermal growth factor
notes: peptide growth factor composed of 55 amino acids in a long chain
For B1, the “MEK activation, time course” value (MEK; PC12 cells treated with 100 ng/ml EGF for 0 to 120 min) is given as “temporary activation”, the MEK activation (MEK; PC12 cells treated with EGF 100 ng/ml for 5 min) is given as “became still higher” and the Kd (EGFR; EGFR high affinity binding, read-out: dissociation constant (Kd), interaction with a high affinity) is given as < 1 nM. For the same molecule, the Kd (EGFR; EGFR low affinity binding, read-out: dissociation constant (Kd), interaction with a low affinity) was 6 to 12 nM and the “ERK activation, time course” value (ERK) was “temporary activation”.
